Measured values published in paper PMC3795256, “Dynamic Regulation of Ero1α and Peroxiredoxin 4 Localization in the Secretory Pathway*^([image sbox.jpg])” (The Journal of Biological Chemistry, 2013).

B1: recombinant human Ero1α (WT) (natural protein, UniProt Q96HE7 24-468, looked up)
chain: EEQPPETAAQRCFCQVSGYLDDCTCDVETIDRFNNYRLFPRLQKLLESDYFRYYKVNLKRPCPFWNDISQCGRRDCAVKPCQSDEVPDGIKSASYKYSEEANNLIEECEQAERLGAVDESLSEETQKAVLQWTKHDDSSDNFCEADDIQSPEAEYVDLLLNPERYTGYKGPDAWKIWNVIYEENCFKPQTIKRPLNPLASGQGTSEENTFYSWLEGLCVEKRAFYRLISGLHASINVHLSARYLLQETWLEKKWGHNITEFQQRFDGILTEGEGPRRLKNLYFLYLIELRALSKVLPFFERPDFQLFTGNKIQDEENKMLLLEILHEIKSFPLHFDENSFFAGDKKEAHKLKEDFRLHFRNISRIMDCVGCFKCRLWGKLQTQGLGTALKILFSEKLIANMPESGPSYEFHLTRQEIVSLFNAFGRISTSVKELENFRNLLQNIH
notes: human Ero1α, wild type, recombinant; also called purified human Ero1α; source: recombinant, purified
B2: recombinant human ERp44 (natural protein, UniProt Q9BS26 30-406, looked up)
chain: EITSLDTENIDEILNNADVALVNFYADWCRFSQMLHPIFEEASDVIKEEFPNENQVVFARVDCDQHSDIAQRYRISKYPTLKLFRNGMMMKREYRGQRSVKALADYIRQQKSDPIQEIRDLAEITTLDRSKRNIIGYFEQKDSDNYRVFERVANILHDDCAFLSAFGDVSKPERYSGDNIIYKPPGHSAPDMVYLGAMTNFDVTYNWIQDKCVPLVREITFENGEELTEEGLPFLILFHMKEDTESLEIFQNEVARQLISEKGTINFLHADCDKFRHPLLHIQKTPADCPVIAIDSFRHMYVFGDFKDVLIPGKLKQFVFDLHSGKLHREFHHGPDPTDTAPGEQAQDVASSPPESSFQKLAPSEYRYTLLRDRDEL
notes: human ERp44, recombinant; a construct made in E. coli probably lacks the signal peptide; source: E. coli BL21 (DE3), purified (HisTrap, Superdex 200, Resource Q)

Assays:
Settings in all cases: both partners purified
recombinant human PDI = target: T1, recombinant human PDI (human, UniProt P07237 18-508); assay: SPR; ProteOn XPR36; Ero1α (WT) or Prx4 amine-coupled to a GLC chip, PDI or ERp44 as analyte (0.444–36 μM); 25 °C; 20 mM HEPES-NaOH pH 7.4, 150 mM NaCl, 0.001% Tween, 2 mM EDTA; two-state model
T1 construct: human PDI, recombinant; also called protein disulfide isomerase; source: recombinant, purified
T1 sequence (P07237 18-508): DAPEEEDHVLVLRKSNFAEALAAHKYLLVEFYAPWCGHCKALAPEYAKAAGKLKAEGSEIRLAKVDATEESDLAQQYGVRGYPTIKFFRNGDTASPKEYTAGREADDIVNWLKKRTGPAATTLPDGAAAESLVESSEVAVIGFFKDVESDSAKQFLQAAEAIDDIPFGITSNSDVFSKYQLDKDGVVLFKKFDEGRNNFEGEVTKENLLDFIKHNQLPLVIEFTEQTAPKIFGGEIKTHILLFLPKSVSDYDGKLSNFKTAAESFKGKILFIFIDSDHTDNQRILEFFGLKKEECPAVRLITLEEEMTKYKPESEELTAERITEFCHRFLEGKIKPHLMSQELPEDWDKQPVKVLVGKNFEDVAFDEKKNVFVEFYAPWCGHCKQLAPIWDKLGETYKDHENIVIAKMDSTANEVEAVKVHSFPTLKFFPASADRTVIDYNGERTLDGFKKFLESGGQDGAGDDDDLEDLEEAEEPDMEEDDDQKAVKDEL

[1] = target: B1; assay: SPR; ProteOn XPR36; Ero1α (WT) or Prx4 amine-coupled to a GLC chip, ERp44 as analyte (0.444–36 μM); 25 °C; 20 mM HEPES-NaOH pH 6.4, 150 mM NaCl, 0.001% Tween, 2 mM EDTA; two-state model
[2] = target: B1; assay: SPR; ProteOn XPR36; Ero1α (WT) or Prx4 amine-coupled to a GLC chip, PDI or ERp44 as analyte (0.444–36 μM); 25 °C; 20 mM HEPES-NaOH pH 7.4, 150 mM NaCl, 0.001% Tween, 2 mM EDTA; two-state model
recombinant human ERp44 [3] = target: B2; assay: SPR; ProteOn XPR36; Ero1α (WT) or Prx4 amine-coupled to a GLC chip, ERp44 as analyte (0.444–36 μM); 25 °C; 20 mM HEPES-NaOH pH 6.4, 150 mM NaCl, 0.001% Tween, 2 mM EDTA; two-state model
recombinant human ERp44 [4] = target: B2; assay: SPR; ProteOn XPR36; Ero1α (WT) or Prx4 amine-coupled to a GLC chip, PDI or ERp44 as analyte (0.444–36 μM); 25 °C; 20 mM HEPES-NaOH pH 7.4, 150 mM NaCl, 0.001% Tween, 2 mM EDTA; two-state model

Binder: B1
- Kd (recombinant human PDI): 1.94 µM

Binder: B2
- Kd [1]: 5.15 µM
- Kd [2]: 10.4 µM

B3: recombinant human Prx4 (natural protein, UniProt Q13162 38-271, looked up)
chain: WETEERPRTREEECHFYAGGQVYPGEASRVSVADHSLHLSKAKISKPAPYWEGTAVIDGEFKELKLTDYRGKYLVFFFYPLDFTFVCPTEIIAFGDRLEEFRSINTEVVACSVDSQFTHLAWINTPRRQGGLGPIRIPLLSDLTHQISKDYGVYLEDSGHTLRGLFIIDDKGILRQITLNDLPVGRSVDETLRLVQAFQYTDKHGEVCPAGWKPGSETIIPDPAGKLKYFDKLN
notes: human Prx4, recombinant; a construct made in E. coli probably lacks the signal peptide; also called purified human Prx4; peroxiredoxin 4; source: E. coli BL21 (DE3), purified (HisTrap, Superdex 200, Resource Q)
- Kd (recombinant human ERp44 [3]): 6.92 µM
- Kd (recombinant human ERp44 [4]): 17.9 µM
